# Test results reported in patent US11542481B2, “Morphinan N-demethylase isolated from the methylobacterium thebainfresser and methods of use thereof” (priority 2017, dated 2023).
# B1: MND enzyme: morphinan N-demethylase identified from the Methylobacterium Thebainfresser, amino acid sequence SEQ ID NO: 2, His-tagged, expressed in E. coli (protein)
# chain: MTEKTPKLGSEAANKLGLEADISRRDMVGGVLIGAGAALLASVAPGAINRALAEGPSRLPPVRGSGTGWRGIEIADDWQGPGGIGDYSKSNGNTGKVIRDAHAGIRNHEFEKRLATASDVNEKYDVIIVGAGISGLHSAYDLLRQRPNIKILMLDNHAIFGGEAKQNKMEVDGQALYGGQGPTLYSFVGDDLPSWKGNPALASIMELKTYPKEFGLPTETTWSDKKTDVKVPVDLWFSMASPSQTDIAYRWEGSGLVKNPLLNSFRDAPVSQKSKDAIALMLAVDNGAKRPVEPVGDVSTWVDNMTYAEFLKKVYGADDEAVQLVDQIDVVGTAGLGGDVFNASLAALGLNQYGGIELWNGGLQGLSLPTGNGGVGRSILRKFMPGAIKGGTSLTDTLFGDVNWDVLDHANNNVRIRLNSTVVGVQNNETPTGTKDATVFFLHDNRLYKAKGKAVIMGTPQQVNRNVCLNLPNHLSEAMGDFHHAPILVVNVALRNWKSMEKAGVSGLRWFGEYPGIGQIVRSMVIDGKEIMPCDPSKPAVMTFYIPMNQATRGMPRGEQAMTARHMLFNLTFADIELLIRDQLTRAFGSYGFDAKRDIAAIVANRWGHALVCAGPGFYTGLNGKPPVSKVITAGWDRVAFGHSDLSGRQAWTVAVNYARTAVANVFPKI
# modifications: His tag; Methylobacterium Thebainfresser
# Legend:
# [1] = type: cell-based, E. coli; conditions: BL21 Star (DE3) cells, toluene treated, 20 μM thebaine, overnight 30° C.
# [2] = MND enzyme temperature optimum assay; type: biochemical; conditions: 20 min assays at 20° C.-80° C., pH 8.0, 7.5 μM thebaine
# Experimental: Enzyme assays with 100 μl purified MND enzyme (˜36 μg), 7.5 μM thebaine, and 30 mM potassium phosphate pH 8.0 in a total assay volume of 200 μl were performed in duplicate and allowed to incubate at the following temperatures for 20 minutes: 20° C., 25° C., 30° C., 40° C., 50° C., 60° C., 70° C. and 80° C. Assays with purified pET28a empty vector control were included at each temperature. Assays were quenched by the addition of 400 μl MeOH followed by rapid mixing for 30 s then subject to centrifugation (16,000×g, 30 min, RT). Samples were diluted further (total of 50 fold dilution) to achieve an analyte concentration of 0.15 μM prior to filtration (low protein binding 0.2 μm, 4 mm, PTFE; Millipore) and introduction into the QTRAP 6500 using Method 1.
# [3] = MND enzyme pH optimum assay; type: biochemical; conditions: 20 min
# Experimental: Enzyme assays with 100 μl purified MND enzyme (˜36 μg), 7.5 μM thebaine, and 60 mM buffer (citrate buffer pH 4 and pH 5, potassium phosphate buffer pH 6.0, pH 7.0, and pH 8.0, and glycine-NaOH buffer pH 9, pH 10, and pH 10.5) in a total assay volume of 200 μl were allowed to incubate at 30° for 20 minutes. Assays with no enzyme and a purified pET28a empty vector control in pH 8.0 were included. The remaining protocol was the same as for the temperature optimum above. A supplemental pH assay was run in the same manner as above to verify the low pH results using a glycine-HCL buffer for pH 2, 3, and 4 and citrate buffer for pH 4, 5, and 6.
# [4] = MND enzyme stability assay; type: biochemical; conditions: pre-incubated at 30° C. in assay buffer pH 7.0 up to 72 hours, then 20 min with thebaine
# Experimental: 100 μl purified MND enzyme (˜36 μg) was incubated in 30 mM potassium phosphate buffer pH 7.0 at 30° C. for 72, 48, 24, 6, 3, and 1 hours prior to addition of 1500 pmol thebaine in a total volume of 200 μl. The assay was allowed to proceed for 20 minutes after substrate addition and was processed and analyzed as in section 23.0.
# [5] = Proteinase K treatment and cofactor addition, conversion of thebaine to northebaine; type: biochemical; conditions: 1 hour Proteinase K digestion before 20 min assay, pH 7.0
# Experimental: The first of two assays performed included adding 1500 pmol FAD to the 200 MND enzyme assay including 100 μl purified MND (˜36 μg) and 1500 pmol thebaine in 30 mM potassium phosphate buffer pH 7.0 with and without a prior 1 hour digest (of MND enzyme) with Proteinase K. Controls included a no enzyme control, FAD addition to a no enzyme control, a pET28a empty vector control, a pET28a empty vector control with FAD, and a pET28a empty vector control digested with Proteinase K followed by FAD addition. Assays were allowed to incubate for 20 minutes and then processed as in section 23.0. A second set of assays was performed, in duplicate, to validate the results found in the previous assay in addition to testing more cofactors. This assay included the following conditions; MND enzyme, MND enzyme pre-digested with Proteinase K for 1 hour, MND enzyme digested with Proteinase K in the presence of 1% SDS and 10 mM EDTA, MND enzyme with 1% SDS and 10 mM EDTA (no Proteinase K pre-digestion), pET28a empty vector, pET28a empty vector pre-digested with Proteinase K for 1 hour, pET28a empty vector digested with Proteinase K in the presence of 1% SDS and 10 mM EDTA, MND enzyme with the addition of 1500 pmol FMN, pET28a empty vector with the addition of 1500 pmol FMN, MND enzyme with the addition of 1500 pmol PLP and pET28a empty vector with the addition of 1500 pmol PLP. Assays were allowed to proceed for 20 minutes prior to processing and quantitation as described in section 23.0.
# [6] = MND solvent stability assays; type: biochemical; conditions: for reduction in activity: pH 7.0, 30° C., 20 min
# Experimental: FIG. 27. […] Enzyme assays with 5% and 25% of DMSO, methanol, chloroform, tetrahydrofuran, toluene, heptane, and diethyl ether were performed in duplicate and contained 30 mM potassium phosphate buffer pH 7.0, 36 μg purified enzyme, and 1500 pmol of thebaine. Assays were allowed to proceed for 20 min at 30° C. and analyzed by LC-MS/MS using the QTRAP 6500.
# Enzymes used in pharma manufacturing must withstand harsh conditions and tolerate solvents, especially if the substrate is insoluble in water (FIG. 27). MND activity was tested in the following solvents at 5% and 25% concentration: DMSO, methanol, chloroform, tetrahydrofuran, toluene, heptane, and diethyl ether.
molecule,measurement,setting,value
B1,"morphinan N-demethylase activity (northebaine production, in words)",[1],showed morphinan N-demethylase activity
same,temperature of highest northebaine accumulation,[2],60 °C
same,northebaine production at pH 4 compared with pH 5-10.5,"[3]; citrate buffer pH 4, 30° C., not observed in glycine-HCL buffer",nearly twice as much
same,difference in northebaine production within the pH range,"[3]; pH range of 5-10.5, 30° C.",no significant difference
same,ability to demethylate thebaine after pre-incubation (stability),[4],maintained its ability to demethylate thebaine
same,amount of northebaine produced after Proteinase K treatment of the enzyme,[5],increased
same,activity (in words),[6]; 5% DMSO,little to no reduction in activity
same,activity (in words),[6]; 5% methanol,little to no reduction in activity
same,activity (in words),[6]; 5% toluene,little to no reduction in activity
same,reduction in activity,[6]; 25% DMSO,21%
same,activity (in words),[6]; 25% chloroform,completely abolished
same,reduction in activity,[6]; 25% methanol,43%
same,activity (in words),[6]; 25% tetrahydrofuran,completely abolished
same,reduction in activity,[6]; 25% toluene,44%
same,reduction in activity,[6]; diethyl ether (25%),66%
same,activity (in words),"[6]; heptane, outlier, heptane sat on top of the reaction",no reduction in activity
